Experimental findings from US20020177203A1 (published 2002) are described below.

For this assay, the target named is T1, mouse α2 subunit of prolyl 4-hydroxylase (mouse, UniProt Q60716 20-537).
T1 construct: Recombinant, made in Sf9 insect cells with a baculovirus; also called α(2) subunit of mouse prolyl 4-hydroxylase; α2 polypeptide
The experiment in a line: coexpression in insect cells; nondenaturing PAGE and Western blot. The method, then: A recombinant baculovirus coding for the mouse α2 subunit was generated and used to infect S. frugiperda insect cells with or without the human PDI/β subunit, wherein the insect cells were infected at a multiplicity of 5. For production of an enzyme tetramer, the human α59 1 (see, Vuori, et al., supra) or mouse α2 viruses and the PDI/β viruses (id.) were used in a 1:1 or 2:1 ratio. The cells were harvested 72 hours after infection, homogenized in 0.01 M tris, pH 7.8/0.1 M NaCl/0.1 M glycine/10 μM dithiothreitol/0.1% Triton X-100, and centrifuged. The resulting supematants were analyzed by SDS/8% PAGE or nondenaturing 7.5% PAGE and assayed for enzyme activities.

T1 sequence (Q60716 20-537): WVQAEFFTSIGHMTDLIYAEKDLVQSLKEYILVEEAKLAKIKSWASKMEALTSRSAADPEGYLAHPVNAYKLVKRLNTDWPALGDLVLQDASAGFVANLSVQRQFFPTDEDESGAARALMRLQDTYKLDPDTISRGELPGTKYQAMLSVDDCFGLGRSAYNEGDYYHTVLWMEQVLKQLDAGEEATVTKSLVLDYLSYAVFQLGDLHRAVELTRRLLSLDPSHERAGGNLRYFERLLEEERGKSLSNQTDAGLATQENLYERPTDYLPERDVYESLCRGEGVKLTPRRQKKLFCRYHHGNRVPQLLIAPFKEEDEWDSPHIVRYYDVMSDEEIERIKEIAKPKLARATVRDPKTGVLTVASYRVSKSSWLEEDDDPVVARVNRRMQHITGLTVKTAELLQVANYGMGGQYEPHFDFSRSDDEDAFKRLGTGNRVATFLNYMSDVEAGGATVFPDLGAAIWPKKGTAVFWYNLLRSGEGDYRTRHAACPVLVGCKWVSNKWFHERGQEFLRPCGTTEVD

B1: human PDI/β subunit of prolyl 4-hydroxylase (protein disulfide-isomerase) (enzyme)
chain: not shown
notes: Made in Sf9 insect cells with a recombinant baculovirus (Vuori et al.); also called human β subunit
As for B1, the binding result was “binds”.
